Data reported in US20220404334A1, “BIOCHIP HAVING MICROCHANNEL PROVIDED WITH CAPTURING AGENT FOR PERFORMING CYTOLOGICAL ANALYSIS” (CASE WESTERN RESERVE UNIVERSITY, priority 2019, published 2022).

Tests used:
[1] = test system: heme-activated endothelial cells (HUVECs and HPMECs); test: Endothelium-on-a-chip: sickle RBC adhesion to heme-activated endothelial cells under hypoxia; assay type: cell-based, human; details: 5 μM, N=13 subjects
Method: The assembled microchannels are rinsed serially with PBS, 100% ethanol, and GMBS following a 20-minute incubation. Thereafter, another washing step is performed using 100% ethanol and PBS before loading the microchannels with a fibronectin solution at a concentration of 0.2 mg/mL. Fibronectin-loaded microchannels are incubated at 37° C. for 1 hour for complete protein immobilization on the GMBS-functionalized surface. To prepare the endothelialized microchannels, human endothelial cells are seeded into fibronectin-coated microchannels at a density of 4×10^6 cells/mL and incubated for 2 hours at 37° C. and 5% CO2 to allow cell attachment and spreading, while replacing the culture medium in the microchannels every hour.
The activating agents (e.g., heme or TNF-α) are then injected into the microchannels in a serum-free medium and incubated for a pre-determined period for activation to take place. Before using the activated endothelial cells, the microfluidic channels are rinsed for at least 2 times with serum-free medium.
When using blood samples collected in Ethylenediaminetetraacetic acid (EDTA) containing vacutainers, the blood samples are first centrifuged and washed three times with PBS to isolate blood cells from plasma. When in contact with adherent endothelial cells, EDTA will induce cell detachment by inhibiting Ca^2+ ions that are necessary for cell adhesion through integrins. […]

Recombinant human ICAM-1 = Recombinant human ICAM-1 (Homo sapiens, UniProt P05362); test: Microfluidic flow adhesion of HbSS RBCs to immobilized ICAM-1, inhibition experiments; assay type: cell-based
Method: ICAM-1 functionalized microchannels of the microfluidic device were connected to blood-containing syringes through 40-cm inlet tubing. A total of […] of whole blood sample was perfused into the microchannels at an approximate shear stress of 1 dyne/cm^2, corresponding to the typical shear stress observed in postcapillary venules, via a constant displacement syringe pump (New Era NE-300; New Era Pump Systems, Farmingdale, N.Y.). To remove the nonadherent cells, another syringe filled with wash buffer (1% bovine serum albumin and 0.09% sodium azide in 13 phosphate buffered saline [PBS]) was connected to the microchannels, and the buffer solution was injected at […], corresponding to a wall shear stress of 1 dyne/cm^2, until all nonadherent cells had been cleared. Phase-contrast images of the microchannel surface were obtained using an inverted microscope at 203. Quantification of ICAM-1-adherent RBCs was performed manually using Adobe Photo-shop CS5 (Adobe, San Jose, Calif.) within a rectangular field of view (fov) with a surface area of 32 mm^2.
For the inhibition studies, whole HbSS blood samples were mixed with a monoclonal mouse antibody against human α4β1 or LFA-1 at a final antibody concentration of […] and incubated at 37° C. for 1 hour prior to the adhesion experiments. As a control, samples were treated with the same concentration of isotype-control mouse immunoglobulin G1 for the same duration. Anti-human LFA-1 antibody and the isotype-control mouse immunoglobulin G were from BioLegend (San Diego, Calif.). Anti-human α4β1 antibody was purchased from Abcam (Cambridge, Mass.). To block the β2-associated adhesion pathways, a recombinant human β2 protein solution (Novus Biologicals, Centennial, Colo.) was perfused into ICAM-1-functionalized microchannels and incubated for 1 hour at 37° C. Before starting the adhesion experiments, the microchannels were rinsed 3 times with PBS. Similarly, to test the inhibitory effect of fibrinogen (Enzo Life Sciences, Farmingdale, N.Y.) or low molecular weight heparin (LMWH; AMSBIO, Cambridge, Mass.), ICAM-1-functionalized microchannels were injected with fibrinogen (range, 1-20 mg/mL) or LMWH (range, 0.1-5 mg/mL). After an hour at 37° C., the microchannels were rinsed with PBS 3 times, and adhesion was assessed as above.
Minitab 19 (Minitab, State College, Pa.) was used to analyze the results. A normality test was performed to determine whether the variables were normally distributed. Because of the largely non-normally distributed variables, Mann-Whitney U tests were used to compare 2 groups, and Kruskal-Wallis tests with Dunn's correction were used to compare multiple groups, unless stated otherwise. K-means clustering analysis was performed to identify distinct subject subpopulations based on hemolysis biomarkers. Through-out this article, the error bars represent±standard error of the mean (SEM). P<0.05 was considered statistically significant.

P-selectin [2] = molecular target: T1, P-selectin (Homo sapiens, UniProt P16109); test: Microfluidic whole blood assay of leukocyte adhesion to immobilized P-selectin, microchannels pre-treated with drug (inhibition experiments); assay type: cell-based
T1 sequence (P16109 42-830): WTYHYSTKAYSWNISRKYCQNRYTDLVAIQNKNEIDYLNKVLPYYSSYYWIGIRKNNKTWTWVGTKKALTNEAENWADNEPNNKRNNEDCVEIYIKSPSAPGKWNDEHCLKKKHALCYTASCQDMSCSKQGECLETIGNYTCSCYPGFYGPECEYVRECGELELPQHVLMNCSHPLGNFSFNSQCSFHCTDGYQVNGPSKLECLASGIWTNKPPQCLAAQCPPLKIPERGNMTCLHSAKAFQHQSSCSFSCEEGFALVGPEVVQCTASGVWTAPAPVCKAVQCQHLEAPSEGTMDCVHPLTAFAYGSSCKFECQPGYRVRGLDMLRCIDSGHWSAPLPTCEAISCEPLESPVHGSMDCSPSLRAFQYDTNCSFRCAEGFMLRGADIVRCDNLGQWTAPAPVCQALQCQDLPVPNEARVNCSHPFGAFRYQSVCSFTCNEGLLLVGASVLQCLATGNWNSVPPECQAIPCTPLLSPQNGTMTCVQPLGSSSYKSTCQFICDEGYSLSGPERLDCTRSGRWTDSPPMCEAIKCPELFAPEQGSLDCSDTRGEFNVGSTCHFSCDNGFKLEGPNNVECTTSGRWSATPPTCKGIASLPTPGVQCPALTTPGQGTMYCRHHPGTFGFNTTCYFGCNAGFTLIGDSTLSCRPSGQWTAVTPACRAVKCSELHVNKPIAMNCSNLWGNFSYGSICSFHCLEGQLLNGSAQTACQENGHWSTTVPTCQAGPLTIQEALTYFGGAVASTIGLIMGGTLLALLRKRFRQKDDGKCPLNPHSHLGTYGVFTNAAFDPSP
Method: (§1) Microfluidic devices were fabricated using a lamination technique. Each microfluidic device contained 3 identical microchannels with a height of 50 μm (FIG. 6A), which were designed to recapitulate volume and flow of post-capillary venules. The microchannels were functionalized with recombinant human P-selectin (25 μg/mL) and blocked with 2% bovine serum albumin (BSA) to pre-vent non-specific adhesion. After tubing assembly, whole blood samples were mixed with Hanks' buffer modified with calcium and magnesium (1:1 v/v), and 15 μL of the diluted whole blood was injected into the microchannels using New Era NE-300 syringe pump system (Farming-dale, N.Y.) at an approximate shear rate of 1 dyne/cm^2. Non-adherent cells were rinsed out by flowing Hanks' buffer. Phase-contrast images of the microchannels with adherent leukocytes were recorded at 10× with an inverted microscope (Olympus IX83) and a camera (EXi Blue EXI-BLU-RF-M-14-C), and adherent leukocytes were manually quantified with Adobe Photoshop software (San Jose, Calif.) in a 32 mm^2 area.
Crizanlizumab (ADAKVEO®, SEG101) stock solution (10 mg/mL) was donated by Novartis (Basel, Switzerland). For the inhibition experiments, P-selectin immobilized-microchannels were pre-treated with Hanks buffer as vehicle control, or Crizanlizumab with graded concentrations of 1, 10, 100 μg/mL, or 1 mg/mL at 37° C. for 30 min. There-after, the adhesion assay was performed. Human IgG2 (Sigma Aldrich, St. Louis, Mo.), at 100 μg/mL, was included as the isotype control for Crizanlizumab. For the detachment experiments, modified microchannels with individual inlets for separately injecting blood and drug-containing buffer were designed to allow transition from washing buffer to Crizanlizumab during rinsing. Two synchronous pumps connected to these inlets were programmed such that Crizanlizumab at 10 μg/mL was injected into microchannels after Hanks buffer without a disruption in shear rate. The programmed flow rates of the two synchronous pumps over the course of the experiment are shown in FIG. 7A, which insured a constant shear rate in the microchannels. Cell behaviors were also continuously recorded. Phase contrast images of the adherent leukocytes were collected during Hanks's buffer rinse and Crizanlizumab flow for comparison.
Leukocyte adhesion data were reported as mean±standard error of the mean (SEM). Clinical variables of the study population were re-ported as mean±standard deviation (SD). Statistical analyses were per-formed with Minitab (Minitab Inc., State College, Pa.). A test for normality was initially performed on relevant variables. A paired t-test was per-formed to compare paired groups before and after Crizanlizumab treatment. Statistical significance was determined based on a p-value<0.05 (p<0.05).

P-selectin [3] = molecular target: T1, P-selectin; parameters: host or cells: patients with SCD (endogenous protein in vivo); details: infused monthly, patients with SCD; cited from earlier work
P-selectin [4] = molecular target: T1, P-selectin; test: Detachment experiments: drug flowed over leukocytes already adherent to immobilized P-selectin; assay type: cell-based
Method: as §1
Crizanlizumab (ADAKVEO®, SEG101) stock solution (10 mg/mL) was donated by Novartis (Basel, Switzerland). For the inhibition experiments, P-selectin immobilized-microchannels were pre-treated with Hanks buffer as vehicle control, or Crizanlizumab with graded concentrations of 1, 10, 100 μg/mL, or 1 mg/mL at 37° C. for 30 min. There-after, the adhesion assay was performed. Human IgG2 (Sigma Aldrich, St. Louis, Mo.), at 100 μg/mL, was included as the isotype control for Crizanlizumab. For the detachment experiments, modified microchannels with individual inlets for separately injecting blood and drug-containing buffer were designed to allow transition from washing buffer to Crizanlizumab during rinsing. […] Cell behaviors were also continuously recorded. […]
Leukocyte adhesion data were reported as mean±standard error of the mean (SEM). […] Statistical significance was determined based on a p-value<0.05 (p<0.05).

[5] = pre-treatment 1 μg/mL, HbSS on-transfusion samples, N=8
[6] = pre-treatment 10 μg/mL, HbSS on-transfusion samples, N=8
[7] = pre-treatment 1 mg/mL, HbSS on-transfusion samples, N=8

Chain of Recombinant human ICAM-1 (P05362 28-532): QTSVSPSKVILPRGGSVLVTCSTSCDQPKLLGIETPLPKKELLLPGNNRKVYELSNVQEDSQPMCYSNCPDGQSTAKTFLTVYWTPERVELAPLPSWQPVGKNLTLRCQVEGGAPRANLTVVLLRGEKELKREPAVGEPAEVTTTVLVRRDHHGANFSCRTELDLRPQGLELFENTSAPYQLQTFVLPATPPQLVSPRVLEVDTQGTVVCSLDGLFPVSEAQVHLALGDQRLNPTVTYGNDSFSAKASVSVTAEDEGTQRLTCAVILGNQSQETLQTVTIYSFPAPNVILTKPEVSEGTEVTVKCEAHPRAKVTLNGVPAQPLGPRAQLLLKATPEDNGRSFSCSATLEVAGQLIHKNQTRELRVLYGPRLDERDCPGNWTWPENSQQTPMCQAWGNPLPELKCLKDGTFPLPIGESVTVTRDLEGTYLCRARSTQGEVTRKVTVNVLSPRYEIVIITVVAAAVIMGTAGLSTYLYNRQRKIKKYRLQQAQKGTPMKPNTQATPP

Molecule: Cc1ccc(NC(=O)c2ccc(CN3CCN(C)CC3)cc2)cc1Nc1nccc(-c2cccnc2)n1 [imatinib]
- Sickle RBC adhesion to heme-activated endothelial cells (mean adhesion±SEM) [1]: 171±30

Molecule: fibrinogen
- Effect on RBC adhesion to ICAM-1 (Recombinant human ICAM-1; microchannels incubated with 1 mg/mL): did not inhibit RBC adhesion
- Adhesion blocked (Recombinant human ICAM-1; microchannels incubated with 5 mg/mL): about 50%
- Effect on RBC adhesion to ICAM-1 (Recombinant human ICAM-1; microchannels treated with 1, 5, 10, 20 mg/mL, n=5): significantly decreased RBC adhesion in a concentration-dependent manner

Molecule: low molecular weight heparin [LMWH]
- Effect on RBC adhesion to ICAM-1 (Recombinant human ICAM-1; preincubation of microfluidic channels (not blood)): had no effect
- Inhibition of RBC adhesion to ICAM-1 (Recombinant human ICAM-1; pretreatment of blood samples at 0.1 mg/mL): 0.80%
- Effect on RBC adhesion to ICAM-1 (Recombinant human ICAM-1; whole blood samples treated (1:1 v/v) at 0.1, 1, and 5 mg/mL): significantly blocked RBC adhesion to ICAM-1

Molecule: recombinant human β2 protein: recombinant human β2 protein solution (Novus Biologicals) to block β2-associated adhesion pathways
- Effect on HbSS RBC adhesion to immobilized ICAM-1 (Recombinant human ICAM-1; microchannels treated with protein 1 hour 37° C., 5 experiments): No significant reduction

B1: Crizanlizumab: humanized monoclonal antibody against P-selectin (antibody, chains of the INN, looked up, V domains shown)
VH: QVQLVQSGAEVKKPGASVKVSCKVSGYTFTSYDINWVRQAPGKGLEWMGWIYPGDGSIKYNEKFKGRVTMTVDKSTDTAYMELSSLRSEDTAVYYCARRGEYGNYEGAMDYWGQGTLVTVSS
VL: DIQMTQSPSSLSASVGDRVTITCKASQSVDYDGHSYMNWYQQKPGKAPKLLIYAASNLESGVPSRFSGSGSGTDFTLTISSLQPEDFATYYCQQSDENPLTFGGGTKVEIK
- Leukocyte adhesion (adherent leukocytes, mean±SEM) (P-selectin [2]; isotype control comparison, 100 μg/mL, N=3): 596±221
- Leukocyte adhesion (adherent leukocytes, mean±SEM) (P-selectin [2]; [5]): 1535±258
- Leukocyte adhesion, range (P-selectin [2]; [5]): 257-2732
- Leukocyte adhesion (adherent leukocytes, mean±SEM) (P-selectin [2]; [6]): 1057±325
- Leukocyte adhesion, range (P-selectin [2]; [6]): 195-2948
- Leukocyte adhesion (adherent leukocytes, mean±SEM) (P-selectin [2]; pre-treatment 100 μg/mL, 37° C. 30 min, HbSS on-transfusion samples, N=8, 32 mm^2 area, 1 dyne/cm^2): 703±161
- Leukocyte adhesion, range (P-selectin [2]; pre-treatment 100 μg/mL, HbSS on-transfusion samples, N=8): 131-1474
- Leukocyte adhesion (adherent leukocytes, mean±SEM) (P-selectin [2]; [7]): 587±168
- Leukocyte adhesion, range (P-selectin [2]; [7]): 81-1403
- Leukocyte adhesion (adherent leukocytes, mean±SEM) (P-selectin [2]; pre-treatment 1 mg/mL, non-transfusion individuals (on-hydroxyurea or supportive care), N=8): 179±79
- Leukocyte adhesion, range (P-selectin [2]; pre-treatment 1 mg/mL, non-transfusion individuals, N=8): 39-691
- Annual rate of VOC (P-selectin [3]): reduced the annual rate of VOC
- Effect of post-treatment on adherent leukocytes (P-selectin [4]; post-treatment 10 μg/mL after leukocytes adhered): detachment of rolling leukocytes whereas firmly attached cells remained adherent
- Leukocyte adhesion after introducing drug, range (P-selectin [4]; post-treatment 10 μg/mL, N=6): 58-2388
- Leukocyte adhesion after introducing drug into the microchannels (mean±SEM) (P-selectin [4]; post-treatment 10 μg/mL, N=6 (4 on-transfusion)): 719±354
